Measured values: PMC7547737

Experiments:
FLAG-AKT^T308A = FLAG-AKT^T308A (UniProt P31749); assay: co-IP; SK-Br3 cells transfected with FLAG-tagged AKT constructs, starved with U0126, treated with TZ 20 min, cross-linked with DSP; anti-FLAG magnetic beads, 3 h at 4 °C; Western blot, amounts normalised on precipitated protein and input
FLAG-AKT^T308D = FLAG-AKT^T308D (UniProt P31749); assay: as above

percent co-precipitated against wt AKT (FLAG-AKT^T308A): 60%
percent co-precipitated against wt AKT (FLAG-AKT^T308D): 60%
Substance: Ser/Thr-protein phosphatase 2A (PP2A)-catalytic subunit beta isoform (from UniProt P62714 1-309) (enzyme)
